Data on 13 sequences can be found in the supplement of paper PMC9233669.

For series [1], the system named is biotinyl-Phe-oxazolone. Description: self-aminoacylation, catalytic enhancement (BFO) (fold over background); higher = more active; k-Seq, kA / k0A0; sequences stand for … in GGGAAUGGAUCCACAUCUACGAAUUC…UUCACUGCAGACUUGACGAAGCUG
In short, it runs like this: (§1)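 Mutagenized RNA pools (0.43 μM; 21-nt variable region) were treated with 2–1250 μM of each biotinyl-aminoacyl-oxazolone. Conditions were 50 μL HEPES/NaCl/KCl/MgCl2/CaCl2 buffer, 5% acetonitrile, pH 6.9–7.0, room temperature, 90 minutes. Catalytic enhancement, the median kA relative to the uncatalyzed rate, was derived from streptavidin capture, qPCR and Illumina sequencing.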

For series [2], the system named is biotinyl-Ile-oxazolone. In words: self-aminoacylation, catalytic enhancement (BIO) (fold over background); higher = more active; k-Seq, kA / k0A0; sequences stand for … in GGGAAUGGAUCCACAUCUACGAAUUC…UUCACUGCAGACUUGACGAAGCUG
Put shortly: as §1

The test system of series [3] is biotinyl-Met-oxazolone. Description: self-aminoacylation, catalytic enhancement (BMO) (fold over background); higher = more active; k-Seq, kA / k0A0; sequences stand for … in GGGAAUGGAUCCACAUCUACGAAUUC…UUCACUGCAGACUUGACGAAGCUG
In short, it runs like this: as §1

For series [4], the system named is biotinyl-Val-oxazolone. Description: self-aminoacylation, catalytic enhancement (BVO) (fold over background); higher = more active; k-Seq, kA / k0A0; sequences stand for … in GGGAAUGGAUCCACAUCUACGAAUUC…UUCACUGCAGACUUGACGAAGCUG
In short, it runs like this:
as §1

In series [5] the test system is biotinyl-Leu-oxazolone. Description: self-aminoacylation, catalytic enhancement (BLO) (fold over background); higher = more active; k-Seq, kA / k0A0; sequences stand for … in GGGAAUGGAUCCACAUCUACGAAUUC…UUCACUGCAGACUUGACGAAGCUG
In short, it runs like this: as §1

Series [6] has as its system biotinyl-Trp-oxazolone. Description: self-aminoacylation, catalytic enhancement (BWO) (fold over background); higher = more active; k-Seq, kA / k0A0; sequences stand for … in GGGAAUGGAUCCACAUCUACGAAUUC…UUCACUGCAGACUUGACGAAGCUG
In short, it runs like this: as §1

This sample holds only a part of the variants without activity.

For “AUUCACCUGGGUCAUCUGGUG [Fam2.2 aminoacylation ribozyme variant]”, the self-aminoacylation in series [1] is 21; in series [2] it was 2.18; in series [3], 2.83; in series [4], 2; in series [5] it was 3.46; in series [6], 2.99.
As to “GGACUUCAAACAAUCGGUCUG [Fam1A.1 aminoacylation ribozyme variant]”, the self-aminoacylation in series [1] was 122; in series [2], 2.34; in series [3] it was 2; in series [4], 1.88; in series [5], 2.75; in series [6] it was 47.1.
For the sequence “UCACACUUCAAGCAGUCGGUC [Fam1B.1 aminoacylation ribozyme variant]”, the self-aminoacylation in series [1] amounted to 1.06; in series [2], 0.827; in series [3], 0.968; in series [4] it was 0.972; in series [5], 0.879; in series [6], 0.901.
Regarding “AUUCACCAGGGUCAUCGGGUG [Fam2.2 aminoacylation ribozyme variant]”, the self-aminoacylation in series [1] turned out to be 57.5; in series [2] it was 4.8; in series [3] it was 7.51; in series [4], 5.45; in series [5], 9.42; in series [6], 6.99.
On to “AAGUUUGUUAAUAGUCGUAAG [Fam3.1 aminoacylation ribozyme variant]”, for which the self-aminoacylation in series [1] amounted to 1.38; in series [2] it was 0.929; in series [3], 0.893; in series [4], 0.808; in series [5], 0.902; in series [6] it was 0.911.
Consider “AAGUGUGCUAAUUGUCGCAAG [Fam3.1 aminoacylation ribozyme variant]”, for which the self-aminoacylation is 1.56 in series [1]; 1.5 in series [2]; 1.45 in series [3]; 1.49 in series [4]; 1.51 in series [5]; 2.65 in series [6].
For the sequence “CUUCCCCUAGGUCAUCGGGUG [Fam2.2 aminoacylation ribozyme variant]”, the self-aminoacylation in series [1] is 60.1; in series [2], 4.92; in series [3], 8.7; in series [4], 5.07; in series [5] it was 10.5; in series [6] it was 7.71.
Regarding “CCACACUUCACGCUAUCGGUC [Fam1B.1 aminoacylation ribozyme variant]”, the self-aminoacylation in series [1] worked out at 1.09; in series [2], 1.13; in series [3], 1.03; in series [4], 1.17; in series [5], 0.971; in series [6] it was 0.951.
Consider “AAGUUUGCUGAUAGUCCCAAG [Fam3.1 aminoacylation ribozyme variant]”, for which the self-aminoacylation in series [1] worked out at 0.972; in series [2] it was 1.17; in series [3], 0.626; in series [4], 0.847; in series [5], 0.786; in series [6] it was 1.08.
On to “CUACUUCAUACAAUCGGGCUG [Fam1A.1 aminoacylation ribozyme variant]”, for which the self-aminoacylation worked out at 0.688 in series [1]; 1.11 in series [2]; 0.744 in series [3]; 0.994 in series [4]; 0.877 in series [5]; 0.764 in series [6].
In the case of “UUUACCCUGGUCAUCGAGUGG [Fam2.1 aminoacylation ribozyme variant]”, the self-aminoacylation stood at 154 in series [1]; 8.85 in series [2]; 31.5 in series [3]; 9.95 in series [4]; 27.3 in series [5]; 29.3 in series [6].
In the case of “AUUCGCCUAAGUCAUCGGGUG [Fam2.2 aminoacylation ribozyme variant]”, the self-aminoacylation in series [1] is 117; in series [2] it was 7.83; in series [3], 12.9; in series [4], 7.95; in series [5], 15.6; in series [6], 11.7.
With “UCACACUUCAAGCACUCGGUC [Fam1B.1 aminoacylation ribozyme variant]”, the self-aminoacylation in series [1] was found to be 0.873; in series [2], 0.94; in series [3], 0.873; in series [4], 1.32; in series [5], 0.927; in series [6], 0.771.
